Assays:
C1s [1] = experiment: C1s activity inhibition; 10x periodate
C1s [2] = experiment: C1s activity inhibition; 20x periodate
C1s [3] = experiment: C1s activity inhibition; 40x periodate
C1s [4] = experiment: C1s activity inhibition

## Cinryze-5k-10x
C1s [1]
  IC50: 1.45 nM

## Cinryze-5k-20x
C1s [2]
  IC50: 2.26 nM

## Cinryze-PEG5k-40x
C1s [3]
  IC50: 2.7 nM

## Cinryze
C1s [4]
  IC50: 1.49 nM

Source: US20250170227A1
